The values that follow come from paper PMC8269962 (Nature, 2021).

This assay has as its target T1, B/Vic-I53_dn5 nanoparticle (Influenza B virus B/Brisbane/60/2008 …, strain).
T1 chain: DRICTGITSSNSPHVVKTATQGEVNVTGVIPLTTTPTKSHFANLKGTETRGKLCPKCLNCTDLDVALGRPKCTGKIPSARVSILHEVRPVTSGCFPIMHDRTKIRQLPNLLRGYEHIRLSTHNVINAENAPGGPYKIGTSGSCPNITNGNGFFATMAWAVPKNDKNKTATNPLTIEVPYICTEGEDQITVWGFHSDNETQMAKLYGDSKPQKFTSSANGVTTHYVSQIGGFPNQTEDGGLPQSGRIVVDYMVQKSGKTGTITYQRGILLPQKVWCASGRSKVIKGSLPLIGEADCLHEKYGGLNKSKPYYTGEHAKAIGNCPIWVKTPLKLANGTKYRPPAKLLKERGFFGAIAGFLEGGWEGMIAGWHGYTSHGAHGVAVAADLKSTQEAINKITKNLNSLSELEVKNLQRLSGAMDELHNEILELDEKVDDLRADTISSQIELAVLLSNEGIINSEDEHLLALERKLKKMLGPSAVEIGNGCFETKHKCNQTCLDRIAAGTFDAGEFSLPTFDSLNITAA
Briefly: ELISA. On the technique in general: In an ELISA, binding on a coated surface is turned into a signal by an enzyme label.

B1: CR8071 (antibody, V domains shown)
VH: QVQLVQSGAEVKKPGASVRVSCRASGYIFTESGITWVRQAPGQGLEWMGWISGYSGDTKYAQKLQGRVTMTKDTSTTTAYMELRSLRYDDTAVYYCARDVQYSGSYLGAYYFDYWSPGTLVTVSS
VL: QSVLTQPPSASGTPGQRVTISCSGSSSNIGTNYVYWYQQFPGTAPKLLIYRSYQRPSGVPDRFSGSKSGSSASLAISGLQSEDEADYYCATWDDSLDGWVFGGGTKLTVL
For B1, the binding result was “binds”.
